Assay results published in paper PMC9976893, “Dynamic states of eIF6 and SDS variants modulate interactions with uL14 of the 60S ribosomal subunit” (Nucleic Acids Research, 2023).

B1: uL14 peptide (aa 121-140) with S138 to A substitution (peptide)
peptide: VAKECADLWPRIASNAGAIA
notes: also called site-specific mutant peptide S138
B2: uL14 peptide (aa 121-140) with alanine substitution of N135 (peptide)
peptide: VAKECADLWPRIASAAGSIA
notes: also called site-specific mutant peptide N135
B3: uL14 peptide (aa 121-140) with alanine substitution of D127 (peptide)
peptide: VAKECAALWPRIASNAGSIA
notes: also called site-specific mutant peptide D127
B4: uL14 peptide (aa 121-140) with alanine substitution of R131 (peptide)
peptide: VAKECADLWPAIASNAGSIA
notes: also called site-specific mutant peptide R131

Target: recombinant full-length human eIF6 (human, UniProt P56537 1-245)
Assay: SPR; eIF6 immobilised on a CM5 chip by NHS/EDC chemistry (4913 RU); peptides injected at 0-500 μM (1:2 dilutions) in 20 mM HEPES pH 7.4, 150 mM NaCl, 0.01% BSA, 0.002% Tween 20; 25 μl/min; BIAcore S200; profiles did not obey a 1:1 model
Conditions: both partners purified

Binder | percent reduction of binding against the uL14-WT peptide at 0.5 mM [%]
B1 | ~50
B2 | ~50
B3 | ~50
B4 | ~50
